US6680176B2, “Identification of candidate ligands which modulate antigen presenting cells” (The United States of America, as represented by the …, priority 1999, dated 2004)

Tested on: CD8 killer T cells
Test: Replacement of T help by soluble factors in CD4 depleted anti-H-Y killer cultures (JAM Test)
Type: cell-based, mouse
Conditions: CD4 depleted primed B6 female spleen cells, male stimulators
Excerpt: Two weeks to 1 year after in vivo priming, spleens were removed from the responders and depleted for CD4 T cells using the Midi MACs system (Miltenyi Biotec, Germany) with MACS magnetic beads conjugated to the anti-mouse CD4 monoclonal antibody, GK1.5. By FACS analysis with the non-competing anti-CD4 antibody RM4-4 (Pharmingen, San Diego, Calif.), the depleted populations routinely contained less than 0.2% CD4 cells.
Two weeks or later after the last in vivo immunization, 4×10^6 spleen cells were restimulated in 2 ml cultures with 2×10^6 irradiated B6 male spleen cells or 1.5×10^5 of the various populations of dendritic cells, with or with out an exogenous source of mouse IL-2, (10% Rat Con A supernatant, from which the ConA has been removed, Collaborative Biomedical Products, Bedford Mass.). Six days later the cultures were tested for their ability to kill male and female targets using the JAM Test. (55).

B1: IL-12: cytokine IL-12 added to the cultures (protein, UniProt P43431 23-215; P43432 23-335, looked up)
Interleukin-12 subunit alpha: RVIPVSGPARCLSQSRNLLKTTDDMVKTAREKLKHYSCTAEDIDHEDITRDQTSTLKTCLPLELHKNESCLATRETSSTTRGSCLPPQKTSLMMTLCLGSIYEDLKMYQTEFQAINAALQNHNHQQIILDKGMLVAIDELMQSLNHNGETLRQKPPVGEADPYRVKMKLCILLHAFSTRVVTINRVMGYLSSA
Interleukin-12 subunit beta: MWELEKDVYVVEVDWTPDAPGETVNLTCDTPEEDDITWTSDQRHGVIGSGKTLTITVKEFLDAGQYTCHKGGETLSHSHLLLHKKENGIWSTEILKNFKNKTFLKCEAPNYSGRFTCSWLVQRNMDLKFNIKSSSSSPDSRAVTCGMASLSAEKVTLDQRDYEKYSVSCQEDVTCPTAEETLPIELALEARQQNKYENYSTSFFIRDIIKPDPPKNLQMKPLKNSQVEVSWEYPDSWSTPHSYFSLKFFVRIQRKKEKMKETEEGCNQKGAFLVEKTSTEVQCKGGNVCVQAQDRYYNSSCSKWACVPCRVRS
- restoration of killer response in the absence of CD4 helpers by addition to the culture: did not replace the activity of helpers
